± gives the uncertainty stated by the source.

A short description of this data set: amyloid nucleation score (Sup35N fusion, yeast selection) (log enrichment); library NNK3; higher = more nucleation; inactive = no reads after selection. A digest of the protocol:
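Nucleation score: DiMSum log enrichment of output over input reads, centred on the mode score of non-aggregating sequences. Only sequences with at least 100 input reads were kept. Reads came from Illumina sequencing of plasmid inserts before and after 7 days of growth at 30°C without adenine and uracil, in psi-negative yeast expressing Sup35N fused to peptides of 20 random codons after 24 hours of induction with 100 μM copper sulfate.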
Regarding FIFAG, the amyloid nucleation score result is “inactive”. The entry for NGIMLQIRNPSSKLNNLLWF is “inactive”; for SWCSPNGPQGLEVCSMRPFR it is “inactive”. As to LEGALRQDSCHKVPKLGQPV, the amyloid nucleation score entry is “inactive”. On to SERKMVSKRTLKGYFRRQVI, for which the amyloid nucleation score entry was “inactive”. In the case of VLLFYLKVTRASTVGVLSSS it was “inactive”; in that of LCLFLSQMFSNRYEIFPLFV, “inactive”; in that of TNVRALA, “inactive”. MRNMCVLAIILILCFGTRFK returned an amyloid nucleation score of 1.21 ± 0.08. In the case of KFCASSCWMNYSVFGMYLSI it was “inactive”; in that of SECYKWRIFCNILNR, 2.36 ± 0.058; in that of SHRKMFQGVKQVISSPETHS, “inactive”. On to TLANQSHLISYYDSDHCRLL, for which the amyloid nucleation score was -0.38 ± 0.78. Turning to NRNRYMFLITITHY, the amyloid nucleation score result is “inactive”. Regarding NNLFELPWKFYEQRNVAELM, the amyloid nucleation score entry was “inactive”. For YRNRTVFALSGLSQGDLPEV, the amyloid nucleation score result is “inactive”.

Take WWCLFWVSWN: the amyloid nucleation score entry was “inactive”. The entry for GHISGTESCNI is “inactive”. Take IWKAWDNSSMGCPS: the amyloid nucleation score is -0.032 ± 0.33. The entry for GRCMEGS is “inactive”; for VLRETLR it is “inactive”; for YGKFMLLPVAGGIFVFENML it is 1.25 ± 0.14. The figure for LVSHLIGFSCRFNPRSERFC is 1.29 ± 0.1; for ARYETRMYKFKNTPGVAERR it is “inactive”; for MMNVMFD it is 0.661 ± 0.23. The figure for AQGVTHLWEARNLWVWVEDQ is -0.316 ± 0.51; for VYMGTVWCSRAI it is “inactive”; for TCCCVYGTMIISEYFHGSNM it is 2.73 ± 0.056. Take ADCGHLTYLSSNSRSLGRRK: the amyloid nucleation score worked out at 0.197 ± 1.

Consider DMSPRMTLSIKSA, for which the amyloid nucleation score entry was “inactive”. In the case of YTPVIKCSYFTSIIGWAGPA it was “inactive”; in that of SRVLDGVWRAVLSCFQGSSI, 0.867 ± 0.12; in that of ERNAGLITAFYFYSPFGTMM, “inactive”. In the case of QWGGSNIVRYRNFIVGLFVR it was “inactive”. Regarding VWSEDIYFCIILRLMDKS, the amyloid nucleation score result was “inactive”.

With CWAYF, the amyloid nucleation score entry was “inactive”. The entry for SNTFTPKGNPLWSSVCVFHQ is “inactive”; for KTNRFHIDFAIDTPRLSLFL it is “inactive”; for VYLYIWQKVSGHHYGFQMDW it is “inactive”. The figure for YAKFCVSASYGVCQKLHGQF is 0.331 ± 0.37. Consider WCFHDGLRAYVNFCRVYATN, for which the amyloid nucleation score entry was “inactive”. In the case of KCGFYRTVFCSRVCVRS it was “inactive”; in that of ICKNYSVLVLRFGGSEGPTV, 1.52 ± 0.1. Consider LARLYYHFLEVHYVLCIC, for which the amyloid nucleation score entry is “inactive”. In the case of LNTGLLLLCG it was “inactive”; in that of RNISRS, “inactive”; in that of EIGSHIGDVQHRVFYNVTLV, “inactive”. As to LQLWVSFSSVKLCYCISHSF, the amyloid nucleation score result is “inactive”. Take DLQFGVGVTASPAAYCRYLS: the amyloid nucleation score result was “inactive”.

In the case of MMTTGLLGVLTSCNSMT, the amyloid nucleation score entry is “inactive”.

For the substance IRVLVCIFWKTCPPNYVCRI, the amyloid nucleation score entry is “inactive”. In the case of YIGVYYLN it was 0.431 ± 0.28; in that of MSPIDGDDSG, “inactive”; in that of YHPYRWLHESRL, “inactive”.

YFLQTEAEVSFEQEVVAISL: the amyloid nucleation score entry was “inactive”. As for DFDLLSFIRSDVIPCVCSKG, the amyloid nucleation score result was “inactive”. As to VCLLSS, the amyloid nucleation score entry was “inactive”. As to PDDKLM, the amyloid nucleation score entry was “inactive”.

Turning to GMIASDVFAHFKSGQTMGVW, the amyloid nucleation score entry is “inactive”. YSSGSFCLFKWSIHR came in with an amyloid nucleation score of 1.65 ± 0.065. SVRFDDAMIDGITSAYMIKY: the amyloid nucleation score entry is “inactive”. Consider HSRAVLTLLW, for which the amyloid nucleation score result was “inactive”. In the case of PKSFWVLSPIDLVIVVQVRQ it was “inactive”. As to NKVSWIFNDSKGQGSV, the amyloid nucleation score is -0.291 ± 1.3.

For the substance GILNT, the amyloid nucleation score entry is “inactive”. Consider NRIFSLTM, for which the amyloid nucleation score entry is “inactive”. In the case of KNYCGKNEYVLCTD, the amyloid nucleation score entry was “inactive”. Take FVVSKLYMPRWASLLLCWRL: the amyloid nucleation score result was “inactive”. The entry for SGHVHNSMKPGRSRTCTMLR is “inactive”; for AFYCVSGIDYVS it is “inactive”; for TCSMSTARSCSHKSNRVMHW it is “inactive”. In the case of PFAST it was “inactive”; in that of FTFWWDRLQNWKHIGFFGKV, 1.06 ± 0.12. As to WLRRN, the amyloid nucleation score result is “inactive”.

TFLLLYGIMDSNVPTVRHAL showed an amyloid nucleation score of 0.846 ± 0.15. YPPTGMIWIRILVSV: the amyloid nucleation score result is “inactive”. For PIFHGD, the amyloid nucleation score result was “inactive”. In the case of DVTTDDSSFRYMLKLLRGIT, the amyloid nucleation score result was “inactive”.

With NISFFTHLVSYRPTVRSSD, the amyloid nucleation score was 1.24 ± 0.14. As to RQNPGLGFLNFFLMV, the amyloid nucleation score came to 0.258 ± 0.35.

In the case of YVKMWHGFYFDRGNGRRDLN, the amyloid nucleation score result is “inactive”.

TVVIVPNWPVCRGHDFGERC: the amyloid nucleation score result is “inactive”. Take KWASFLFYFDVMSYSARELN: the amyloid nucleation score was -0.32 ± 0.84. Take TADLRRQTLGWGKFYYVSWF: the amyloid nucleation score result was “inactive”. For the substance YFSYLCGVRYLYCFKLCSSM, the amyloid nucleation score entry is “inactive”. In the case of WDEIIY, the amyloid nucleation score result is “inactive”. On to SLSFSVLLHWIFCYFWILY, for which the amyloid nucleation score result was “inactive”. For the substance GVKTHGIAVMKVGLRRLCQG, the amyloid nucleation score entry was “inactive”. In the case of WKEWLGMGLLVSNAGHKQGG, the amyloid nucleation score result was “inactive”. The entry for TRDRCLRFKLVPVYFVWTCG is “inactive”; for FLGSYSLTDRIRWVTFPLFQ it is “inactive”; for ISVVGILLGLSSFPVYSVSW it is “inactive”. In the case of CFCQVSKANWLNR it was “inactive”.

HKILRSVGFGRILAYGLLDI: the amyloid nucleation score entry is “inactive”.

Turning to AWSVIMCFIWNRCKRRSS, the amyloid nucleation score entry is “inactive”.

For AFTHVTSVMTVQDSLGLCLL, the amyloid nucleation score result is “inactive”. The entry for RSHQKEMCVNFNLPVNFSHR is “inactive”; for IRFYQKCVLSACVTSTRIMV it is “inactive”; for PCTMDESRYLVMYFHFPMSV it is “inactive”. As for RTLVPGTHR, the amyloid nucleation score entry is “inactive”. The entry for LVQSTRGSRSNTWACNERFV is “inactive”. For the substance CVMGIRIHPFVVYNGQGGTS, the amyloid nucleation score entry is “inactive”. The entry for MPEKERAKSSPYLSEPRPHD is “inactive”; for HVFRLAWTMKLWEADTLS it is “inactive”; for KSYMYILKWAVLVLCSRSGL it is “inactive”. On to DYIRHSFHCVLILSDKSHFS, for which the amyloid nucleation score entry is “inactive”.

With IRSLLLILVRSAVPSALSVN, the amyloid nucleation score entry was “inactive”. The figure for CEGCTYMCSCI is 0.85 ± 0.1; for MLFANRHNLESGWSL it is “inactive”; for YDCVIYSVAECLYVTSSFIE it is 0.253 ± 0.18. In the case of TTLLFMKH it was “inactive”; in that of WDAPKCNSVNYLLKDHYHRC, “inactive”; in that of EPGSANRSSESNCRVGGTDD, “inactive”.

With WIDGINWLSSLVTAIKHSVK, the amyloid nucleation score result is “inactive”. The entry for SGFHERCFINQPVFST is “inactive”; for GLVYWVQHGCWLTAIQSVLV it is “inactive”; for SIFKVISERQSV it is “inactive”. The entry for MVNTM is “inactive”. In the case of LFDHYWLGSWIVENSYPSGE it was “inactive”; in that of CCSSCVWGRVFRSSAMPPRI, “inactive”; in that of RLGRLTPKMISYRKVWKYWG, “inactive”. On to GWELTFRSEF, for which the amyloid nucleation score entry was “inactive”. Turning to WYSYPNFG, the amyloid nucleation score entry was “inactive”. As for EDAWMIVRISGC, the amyloid nucleation score result was “inactive”. Take GESAKDVFGSLCRRLISIQL: the amyloid nucleation score entry is “inactive”.

For the substance YMGEVCCIVVVTDHLCTVVI, the amyloid nucleation score entry was “inactive”. Take YCGNLYRDFLGQQPF: the amyloid nucleation score entry was “inactive”. Consider LLLVWRLKVSGGLDSNRTGV, for which the amyloid nucleation score was found to be 1.05 ± 0.13. In the case of QYRRRVYDYVGCTRLWKNLW it was -0.682 ± 0.93; in that of HLIST, “inactive”. The figure for WLSGACEPPF is 0.718 ± 0.28; for YSTRPSYFLDLMLYIDTWVQ it is “inactive”.

Source of the values: the supplement of paper PMC12042874.
